The record followed here is US20170304444A1 (Dana-Farber, published 2017).

Numbering of substitutions follows the chain as printed.

The target of experiment [1] is T1, glucocorticoid-induced tumor necrosis factor receptor (GITR) (human, UniProt Q9Y5U5 26-241).
T1 chain: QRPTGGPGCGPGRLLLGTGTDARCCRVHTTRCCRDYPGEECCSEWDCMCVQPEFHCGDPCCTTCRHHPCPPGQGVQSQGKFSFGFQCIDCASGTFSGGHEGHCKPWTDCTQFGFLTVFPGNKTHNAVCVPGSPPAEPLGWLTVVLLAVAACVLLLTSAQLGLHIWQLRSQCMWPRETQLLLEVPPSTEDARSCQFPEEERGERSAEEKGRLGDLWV
Nature of the experiment: BLI.

For experiment [2], the target named is T1, glucocorticoid-induced tumor necrosis …. Nature of the experiment: flow cytometry, GITR-expressing 293T cells. A general note: A flow cytometer gives signals particle by particle.
Experiment [3] deals with T2, glucocorticoid-induced tumor necrosis factor receptor (GITR) (human, UniProt Q9Y5U5 26-241).
T2 construct: whole, on cells; also called GITR expressing 293T cells
T2 sequence (looked up): T1 chain
The experiment is described as follows: flow cytometry on GITR-expressing 293T cells, FITC anti-human Fc detection.

B1: mAb #15-68 (antibody, V domains shown)
VH: EVQLVQSGAEVKKPGASVNVSCKASGYTFTGYYMHWVRQAPGQGLEWMGWINPNSGGTNYAQKFQGRVTVTTDTSNSTAYMELNRLKSDDTAVYYCAREGSGDLDSLYMDVWGKGTMVTVSS
VL: SYELTQPPSVSVAPGQTARITCGANNIGSKSVHWYQQKPGQAPVLVVYDDSDRPSGIPERFSGSNSGNTATLTITRVEAGDEADYYCQLWDGGSDVVFGGGTKLTVLG
As usually defined, the Kd is a measure of binding affinity in units of concentration. By EC50 is commonly meant the concentration needed to bring the measured effect to its halfway point. A high value points to lower potency in that assay. B1 returned a dissociation constant Kd in experiment [1] of 3.81 nM. Also, the EC50 in experiment [2] amounted to 26.5 nM.

B2: mAb #12-46 (antibody, V domains shown)
VH: EVQLVQSGAEVKKPGASVKVSCKASGYTFTGYYMHWVRQAPGQGLEWMGWINPKTGDTNYAQKFQGRVALSRDTSFNTAYMDLSSLRSDDTAVYYCAREGLSTSSPLDYWGQGTLVTVSS
VL: QPGLTQPPSVSVAPGQSAKITCGENELATNIVHWYQQKPGQAPVLVIYHDNDRPSGIPERFSGSNAGNTATLTISRVEAGDEADFYCQLWDSASDQVVFGGGTTLTVLG
Consider B2, for which the Kd in experiment [1] amounted to 5.07 nM. Also, in experiment [3], the binding result is given as “binds”. In experiment [2], this molecule returned an EC50 of 72.4 nM.

B3: mAb #11-126 (antibody, V domains shown)
VH: EVQLVESGAEVKKPGASVKVSCKASGYTFTGYYMHWVRQAPGQGLEWLGWVNPHSGGTNYAQKFQGRVTMTRDTSISTAYMELSRLRSDDTAVYYCARETDISANYHFDYWGQGTLVTVSS
VL: QSALTQPASVSGSPGQSITISCTGTSSDVGSYNAVSWYQHHPGKAPKLMIYEVSKRPSGVSNRFSGSKSGNTASLTISGLRAEDEADYYCATWDDSLKGPVFGGGTKLTVLG
B3 gave a Kd in experiment [1] of 2.8 nM. Further, the binding result in experiment [3] is “binds”. For the same molecule, it took 13 nM to reach a half-maximal effect in experiment [2] (EC50).

B4: mAb #7-192 (antibody, V domains shown)
VH: EVQLVESGAEVKKPGASVKVSCKTSGYTFTDHYIHWVRQAPGQGLEWMGWINPSSGGTEYAQKFQGRVTMTRDTPISTAYMDLSGLRSDDTAVYYCARETIGGWNALDVWGQGTLVTVSS
VL: MPVLTQPPSVSVAPGQTARITCGGHKIGTKSVHWYQQKPGQAPVLVVYDDRDRPSGIPERFSGSNSGGTATLTISRVEAGDEADYYCQVWDSNSDHVVFGGGTKLTVLS
As to B4, the Kd in experiment [1] stood at 3.13 nM. Besides, the binding result in experiment [3] is listed as “binds”. This molecule also returned an EC50 in experiment [2] of 19.3 nM.

B5: mAb #1-81 (antibody, V domains shown)
VH: B4 VH
VL: QPVLTQPPSASGTPGQRVTISCSGSSSNIGINTVNWYQQLPRTPPKLLIYTNNQRPSGVPDRFSGSKSDTSASLAISGLQSEDEADYYCAAWDDTLNGPLFGGGTKVTVLG
notes: Found as scFv by phage display
Consider B5, for which, in experiment [1], the Kd turned out to be 1.66 nM. In addition, the binding result in experiment [3] was “binds”. This molecule registered an EC50 in experiment [2] of 22.4 nM.

B6: mAb #17-60 (antibody, V domains shown)
VH: B4 VH
VL: B5 VL
In turn, B6 registered a Kd in experiment [1] of 1.14 nM. In addition, in experiment [2], a half-maximal effect (EC50) was put at 15.1 nM.

B7: mAb #5-139 (antibody, V domains shown)
VH: B4 VH with E6Q, L115T
VL: QSVLTQPPSASGSPGQRVTMSCSGSSSTIGRHSVNWYQQLPGTAPKLLIYANNQRPSGVPGRFSASKSDTSASLAISGLRSEDEANYYCAAWDDSLSGVLFGGGTKVTVLG
B7 registered a Kd in experiment [1] of 0.42 nM. Besides, the binding result in experiment [3] is on record as “binds”. The response in experiment [2] was half-maximal at 16.8 nM (EC50).

B8: mAb 3-167 (antibody, V domains shown)
VH: EVQLVQSGSELKKPGASVKVSCKASGYTFTGYYMHWVRQAPGQGLEWMGWINPNSGGTNYAQKFQGRVTVTTDTSTSTAYMELRSLRSDDTAVYYCAREGVHSDAFDVWGQGTTVTVSS
VL: ETTLTQSPATLSVSPGERATLSCRASQSVYTNLAWYQQKPGQAPSLLIYGASSRATGIPDRFSGSGSGTDFTLTISRLEPEDFAVYYCQQYGSSHFTFGPGTKVDIK
In the case of B8, in experiment [1], the dissociation constant Kd came out at 0.855 nM. Moreover, the binding result in experiment [3] was “binds”. The molecule also displayed an EC50 in experiment [2] of 28.2 nM.

B9: mAb #10-116 (antibody, V domains shown)
VH: EVQLVQSGADVKKPGASVKVSCKASGYTFTGYYIHWVRQAPGQGLEWMGWINPNSGGTNYAQKFQGRVTMTRDTSISTAYMELSRLRSDDTAVYFCVREVKDYYYYMDVWGRGTTVTVSS
VL: NFMLTQPHSVSESPGKTVTISCTRSSGSIASNSVQWYLQRPGSAPTTLIFDNKQRPSGVPDRFSGSIDSSSNSASLSISGLTTEDEADYFCQSYDDSEQVVFGGGTKLTVLS
For the molecule B9, the Kd in experiment [1] came to 4.77 nM. Besides, the binding result in experiment [3] was “binds”. Also, in experiment [2], the EC50 amounted to 28.3 nM.

B10: mAb #13-169 (antibody, V domains shown)
VH: EVQLVQSGAEVKRPGASLKVSCKASGYTFTSHYIHWVRQAPGQGLEWMGWINTGNGDTRYSQRFQGRVTVTRDTSASTVYMELSSLRSEDTAVYYCARESSSSWFVAFDVWGQGTTVTVSS
VL: QPVLTQPPSVSLAPGQTARITCSEKNIRSKRVHWYQQKPGQAPVLVMYSDNGRRSGIPDRFSGSNSGNTATLTITRVEAGDEGDFYCQVWDPITDQVVFGGGTKLTVLG
In turn, B10 yielded a dissociation constant Kd in experiment [1] of 3.21 nM. Further, the binding result in experiment [3] was “binds”. This molecule showed an EC50 in experiment [2] of 47 nM.

B11: mAb #14-182 (antibody, V domains shown)
VH: QVQLVQSGAEVKQPGSSVKVSCKASGYTFTGYYMHWVRQAPGEGLEWLGWINPHSGGTNYAQKFQGRVTITADKSTSTAYMELSSLRSEDTAVYYCAREIVVVTAPAAAAMDVWGQGTLVTVSS
VL: QSVLTQPPSASGSPGQSVTISCTGSSSDVAIYDRVSWYQQPPGTAPKLILYDVHDRPSGVPDRFSGSKSGNTASLTISGLQAEDEADYYCSSYTTSGTFVFGSGTKVTVLG
As to B11, binding in experiment [1] was put at a Kd of 1.82 nM. Moreover, in experiment [3], the binding result is given as “binds”. The molecule further gave an EC50 in experiment [2] of 20.5 nM.
